Results: patent US20230381331A1 (HANMI PHARM, published 2023)
Non-standard residues stand in square brackets, D forms with d. No end group written: not given here. Aib = CC(C)(N)C(=O)O

T1: human GIP receptor (human, UniProt P48546 22-466)
T1 sequence (looked up): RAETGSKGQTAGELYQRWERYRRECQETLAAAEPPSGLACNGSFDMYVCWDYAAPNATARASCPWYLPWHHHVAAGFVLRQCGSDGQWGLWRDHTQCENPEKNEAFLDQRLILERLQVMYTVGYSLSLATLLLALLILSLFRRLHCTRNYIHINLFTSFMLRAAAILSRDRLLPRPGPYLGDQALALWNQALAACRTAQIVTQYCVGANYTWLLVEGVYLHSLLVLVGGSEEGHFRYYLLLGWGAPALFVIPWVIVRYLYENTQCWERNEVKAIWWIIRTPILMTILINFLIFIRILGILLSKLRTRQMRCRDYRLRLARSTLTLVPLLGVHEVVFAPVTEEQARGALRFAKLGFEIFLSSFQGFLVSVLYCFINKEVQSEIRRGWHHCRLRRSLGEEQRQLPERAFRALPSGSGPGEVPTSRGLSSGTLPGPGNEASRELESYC


target: T1, human GIP receptor; assay: cell-based or functional assay

Row | Binder | In vitro activity of GIP derivative compared to human native GIP in human GIP receptor (%) (cAMP EC50, LANCE cAMP kit, CHO cells)
1 | Y[Aib]EGTFISDYSIQMDAIAQQDFVNWLLAGGPSSGAPPPSC [GIP derivative of SEQ ID NO: 5] | 12.1
2 | Y[Aib]EGTFISDYSIYLDAIAQQDFVNWLLAGGPSSGAPPPSC [GIP derivative of SEQ ID NO: 6] | 17.4
3 | Y[Aib]EGTFISDYSIYLDKQAA[Aib]EFVNWLLAQKGKKNDWKHNITQC (not fully specified) [GIP derivative of SEQ ID NO: 12] | 49.2
4 | Y[Aib]EGTFISDYSIAMDAIAQQDFVNWLLAQKGKKNDWKHNITQC (not fully specified; printed as YAibEGT FISDYSIAMDAIAQQDFVNWLLAQKGKKNDWKHNITQC) [GIP derivative of SEQ ID NO: 11] | 122
5 | Y[Aib]EGTFISDYSIYLDAQAAKDFVNWLLAGGPSSGAPPPSC [GIP derivative of SEQ ID NO: 9] | 2
6 | Y[Aib]EGTFISDYSIYLDAQAA[Aib]EFVNWLLAQKC (not fully specified) [GIP derivative of SEQ ID NO: 14] | 17.4
7 | Y[Aib]EGTFISDYSIYLDAQAA[Aib]DFVNWLLAGGPSSGAPPPSC [GIP derivative of SEQ ID NO: 8] | 1.9
8 | Y[Aib]EGTFISDYSIYLDAQAQQDFVNWLLAGGPSSGAPPPSC [GIP derivative of SEQ ID NO: 7] | 19.6
9 | Y[Aib]EGTFISDYSIAMDGIAQQDFVNWLLAQKPSSGAPPPSC (not fully specified) [GIP derivative of SEQ ID NO: 16] | 11.3
10 | Y[Aib]EGTFISDYSIYLDKQAA[Aib]EFVQWLIAGHPSSGAPPPC [GIP derivative of SEQ ID NO: 26] | 66.7
11 | Y[Aib]EGTFISDYSIYLDKQAA[Aib]EFVNWLL[Aib]GGPSSGAPPPSC [GIP derivative of SEQ ID NO: 20] | 75.3
12 | Y[Aib]EGTFISDYSIYLDAQAAKEFIAWLLAGGPSSGAPPPSC (not fully specified) [GIP derivative of SEQ ID NO: 10] | 13.9
13 | Y[Aib]EGTFISDYSIYLDKQAA[Aib]EFVNWLLAGHPSSGAPPPSC [GIP derivative of SEQ ID NO: 22] | 71.6
14 | Y[Aib]EGTFISDYSIALEKQAQQDFVNWLLAGGPSSGAPPPSC [GIP derivative of SEQ ID NO: 17] | 111
15 | Y[Aib]EGTFISDYSI[Aib]LDKQAA[Aib]EFVNWLL[Aib]GHPSSGAPPPSC [GIP derivative of SEQ ID NO: 24] | 183
16 | Y[Aib]EGTFISDYSIYLDKQAA[Aib]EFVQWLI[Aib]GGPSSGAPPPSC [GIP derivative of SEQ ID NO: 25] | 78.3
17 | Y[Aib]EGTFISDYSIYLDKQAA[Aib]EFVNWLL[Aib]GHPSSGAPPPSC [GIP derivative of SEQ ID NO: 19] | 66.7
18 | Y[Aib]EGTFISDYSIAMDKIAQQDFVNWLLAQKPSSGAPPPSC (not fully specified) [GIP derivative of SEQ ID NO: 15] | 31.1
19 | Y[Aib]EGTFISDYSIYLDKQAQKEFVNWLL[Aib]GGPSSGAPPPSC [GIP derivative of SEQ ID NO: 23] | 87.6
20 | Y[Aib]EGTFISDYSIYMDAIAQQDFVNWLLAGGPSSGAPPPSC [GIP derivative of SEQ ID NO: 4] | 10.5
21 | Y[Aib]EGTFISDYSI[Aib]LDKQAA[Aib]EFVNWLL[Aib]GGPSSGAPPPSC [GIP derivative of SEQ ID NO: 21] | 123
22 | Y[Aib]EGTFISDYSIAMDAIAQQDFVNWLLAQKPSSGAPPPSC (not fully specified) [GIP derivative of SEQ ID NO: 1] | 49.3
23 | Y[Aib]EGTFISDYSIYLDKQAA[Aib]EFVNWLLAQKC (not fully specified) [GIP derivative of SEQ ID NO: 13] | 31.1
24 | Y[Aib]EGTFISDYSIYLDKQAAQEFVNWLLAQKPSSGAPPPSC [GIP derivative of SEQ ID NO: 18] | 13.6
25 | Y[Aib]EGTFISDYSIAMDAIAQQDFVNWLLAGGPSSGAPPPSC [GIP derivative of SEQ ID NO: 2] | 13.9
26 | Y[Aib]EGTFISDYSI[Aib]MDAIAQQDFVNWLLAGGPSSGAPPPSC [GIP derivative of SEQ ID NO: 3] | 15.6
